Test [1] deals with sEGFR domain III (residues 310-512) (human) (UniProt P00533). Put plainly: size exclusion chromatography (Superdex 200), 4 µM, domain III with Fab 425 and Fab C225 together.
Test [2] addresses sEGFR domain III S460P/G461N (human) (UniProt P00533). Put plainly: size exclusion chromatography (Superdex 200), 4 µM; the individual proteins elute at 15.6 mL.
The target in test [3] is sEGFR domain III (residues 310-512) (human) (UniProt P00533). The description is as above.

The source of these data is patent US20160152711A1.

The substance Fab 425 came in with an elution volume of the tripartite complex in test [1] of 13.1 mL. In addition, in test [2], the elution volume of the mixture was 15.2 mL. The substance also showed an elution volume of the complex in test [3] of 13.9 mL.
